Assay results taken from patent publication US20160230171.

T1: plakoglobin
T1 chain: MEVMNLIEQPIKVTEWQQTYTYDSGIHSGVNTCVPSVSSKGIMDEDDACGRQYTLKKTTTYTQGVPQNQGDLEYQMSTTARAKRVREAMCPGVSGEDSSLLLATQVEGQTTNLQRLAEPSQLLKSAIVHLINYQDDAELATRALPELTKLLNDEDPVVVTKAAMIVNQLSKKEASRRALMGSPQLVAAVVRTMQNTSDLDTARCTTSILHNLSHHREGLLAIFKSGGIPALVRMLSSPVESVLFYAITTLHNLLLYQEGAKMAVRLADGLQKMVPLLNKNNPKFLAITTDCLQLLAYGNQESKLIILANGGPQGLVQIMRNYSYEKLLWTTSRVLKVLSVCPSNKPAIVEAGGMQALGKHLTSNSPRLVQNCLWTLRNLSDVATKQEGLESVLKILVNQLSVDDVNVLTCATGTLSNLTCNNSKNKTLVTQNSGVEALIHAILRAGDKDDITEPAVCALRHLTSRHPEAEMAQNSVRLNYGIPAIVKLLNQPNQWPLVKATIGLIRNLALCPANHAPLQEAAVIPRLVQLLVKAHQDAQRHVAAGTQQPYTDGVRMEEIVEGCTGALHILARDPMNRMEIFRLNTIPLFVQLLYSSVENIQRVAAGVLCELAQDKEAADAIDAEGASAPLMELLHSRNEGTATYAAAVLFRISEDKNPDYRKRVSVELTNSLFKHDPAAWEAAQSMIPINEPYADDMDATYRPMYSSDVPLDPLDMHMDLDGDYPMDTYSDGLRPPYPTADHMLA

T2: 6His-plakoglobin
T2 chain: T1 chain

B1: GST-Trim32 (protein)
chain: MAAAAAASHLNLDALREVLECPICMESFTEEQLRPKLLHCGHTICRQCLEKLLASSINGVRCPFCSKITRITSLTQLTDNLTVLKIIDTAGLSEAVGLLMCRGCGRRLPRQFCRSCGVVLCEPCREADHQPPGHCTLPVKEAAEERRRDFGEKLTRLRELTGELQRRKAALEGVSRDLQARYKAVLQEYGHEERRIQEELARSRKFFTGSLAEVEKSNSQVVEEQSYLLNIAEVQAVSRCDYFLAKIKQADVALLEETADEEEPELTASLPRELTLQDVELLKVGHVGPLQIGQAVKKPRTVNMEDSWAGEEGAASSASASVTFREMDMSPEEVAPSPRASPAKQRSSEAASGIQQCLFLKKMGAKGSTPGMFNLPVSLYVTSQSEVLVADRGNYRIQVFNRKGFLKEIRRSPSGIDSFVLSFLGADLPNLTPLSVAMNCHGLIGVTDSYDNSLKVYTMDGHCVACHRSQLSKPWGITALPSGQFVVTDVEGGKLWCFTVDRGAGVVKYSCLCSAVRPKFVTCDAEGTVYFTQGLGLNVENRQNEHHLEGGFSIGSVGPDGQLGRQISHFFSENEDFRCIAGMCVDARGDLIVADSSRKEILHFPKGGGYSVLIREGLTCPVGIALTPKGQLLVLDCWDHCVKIYSYHLRRYSTP
B2: recombinant Trim32 (protein)
chain: B1 chain

How the values were obtained:
plakoglobin = target: T1, plakoglobin
6His-plakoglobin = target: T2, 6His-plakoglobin

Row | Protein | polyubiquitination in vitro (E1, UbcH5, ATP, 6His-ubiquitin; nickel column; mass spectrometry) (plakoglobin) | polyubiquitination in vitro (Trim32, UbcH5, ubiquitin, ATP; Ni column; immunoblot with anti plakoglobin) (6His-plakoglobin)
1 | B1 | plakoglobin was polyubiquitinated by Trim32 (as documented by the presence of 13 unique peptides) | –
2 | B2 | – | recombinant Trim32 also polyubiquitinated 6His-plakoglobin, which was expressed and purified from normal muscle
